The data set is described as follows: label from the status in PepcDB records.

Consider nine sequences from a protein production outcome set (Wang et al. 2014).

Turning to “MNCRKTALLKTGRVARLVLCSAMLGAAIPTMALAIGGASGAHVDYQVQGKLGEVIMNPYDIAPLTAIIKNGGYVLKDVTVRIVPKKDGQEIKYQVANKHLLTHGGIPVFGMYPDYVNTVEVEYSRLYNGKWEQAKESYTLYTPPVYTEPNATKTQKAALFSGADVKKVDKKFSDRLYFVNNFLHKAGKGTRAVWNNPTGGALEWNYYPQNFIVDTKGEVRWYMNANPIYDLKSIYNAGVMMGFKQNNDGAMSWGFGQRYVKYDIMGKEVFNRELPAGYNDFSHSMDNSPNGNYFLRVGSSNLKRADGKNVRTVRDVIIEVDPSSGLVQDEWRLFDILDPYRDVNFKVLDQGAVCLNIDASKAGHTMSAEDLAKQDANDKFGDIVGVGPGRNWAHVNSVDHDAEDDSIIISSRHQSAVIKIGRDKQIKWIMGSPEGWKKEYQGKLLTPVDSKGNKIECEAGGSKCPGYENDEGGFDWTWTQHTAFKIDSKSKGDIIYVSVFDNGDSRGMEQPALPSMKYSRAVIYKIDQKKMTVEQIWEFGKERGNGWYSPVTSLTEYQTDKDSVFVYSATAGADFDINTGAFKTDPNPYIMEFNYGSKEPAVEIQLKDTTGYQAMPFSVDKAFTK”, the protein production result is given as “failed”.
For the sequence “MNDALHIGLPPFLVQANNEPRVLAAPEARMGYVLELVRANIAADGGPFAAAVFERDSGLLIAAGTNRVVPGRCSAAHAEILALSLAQAKLDTHDLSADGLPACELVTSAEPCVMCFGAVIWSGVRSLVCAARSDDVEAIGFDEGPRPENWMGGLEARGITVTTGLLRDAACALLREYNACNGVIYNARCGVHK”, the protein production result was “not failed”.
Under “MNDHTAAIAAHFDQLAPNLDRWRRRNRTYYRDLEKLHRFWIPTGSRVLQVGSGLGDLLATVEPSFGIGIDVSPQAVAIAQQRHPQLQFHCLAAEELTPEAIGNPEPFDAIILTGVLSYLTDIQVVLEQLQAFCHPRTRLILGFHNFLWQPLLTAAEKVGQRSPQPPESWLGMQDVLNLLTLTGYEPIKQGRRFLLPRQIPLLTGWINRWISPLPVIEHLALTNYVIARPLAQPRSQPTVSVIVPARNEAGNIAAAVERLPELGAETELIFVEGHSRDQTWETIEQTVAEYQGPLKLLACRQTGKGKADAVRLGFDKASGDILMILDADLTVQPEDLGHFYRAIASGRGEFINGSRLVYPRSRLAMPGLNTLANRTFALIFSFLLGQPLKDTLCGTKVLWKTDYDRVAAGRKYFGDFDPFGDFDLLFGAAKLGLEIVEVPVRYQERSYGSSNIAHVREGLILARMCLYAAGKLKFPH” stands “failed”; under “MNDIILKSLSTLITEQRNPNSVDIDRQSTLEIVRLMNEEDKLVPLAIESCLPQISLAVEQIVQAFQQGGRLIYIGAGTSGRLGVLDASECPPTFGVSTEMVKGIIAGGECAIRHPVEGAEDNTKAVLNDLQSIHFSKNDVLVGIAASGRTPYVIAGLQYAKSLGALTISIASNPKSEMAEIADIAIETIVGPEILTGSSRLKSGTAQKMVLNMLTTASMILLGKCYENLMVDVQASNEKLKARAVRIVMQATDCNKTLAEQTLLEADQNAKLAIMMILSTLSKSEAKVLLERHQGKLRNALSK”, “not failed”.
As to “MNDLKRLPYEPVKGLLPRPAVGTSERVITLPEPDRTSGMPLMGTLWLRKSTREFDQQPLPLKQLSELLWAAAGVNRSLGGGRTAPSPYGETVIDVYVALPAGLYRYDPVHHCLELKRAADLRSMTGYQDFVGMAPLDLVFVANHGRMQEMPPKLRETFSAAAAGAMAENAYLYCASAGLGAVVRGWLNRRQLAEHMSLNEDEEPILSQTIGRAASHVTTTQA”, the protein production result is listed as “not failed”.
For “MNDNVLRYIKRVFNLITILGFVATIVGGIYLWRLGAFQNQAVLQQLIVAHRFLGPLIFLCMQILQVIVPIIPGGITMAAGVMIFGPVWGFVYNYFGIVAGSFLLFHFGKKYGSSLAKTFVKEKTYNKYMAWLDKGQKRFNIVFALLILSPIAPDDALVLIASQTKMSWKFFTWSILLCKPLPILLYSYLLIFGGDLLGHIL”, the protein production result is “failed”.
Under “MNDPQKLCDVNFFRPRKGYMTGEVAIIAAVLVGWAVANFGFQGVLALLAQSPDGEGILTRLTFLSFPWHFWFTGQFLPLWFIILCVLFNIYIDRHTEQHSRRRDRSHD” stands “failed”; under “MNDQELRAYLSQAKTIAVLGAHKDPSRPAHYVPRYLREQGYRVLPVNPRFQGEELFGEEAVASLLDLKEPVDILDVFRPPSALMDHLPEVLALRPGLVWLQSGIRHPEFEKALKEAGIPVVADRCLMVEHKRLFRGPLPL”, “not failed”.
Take “MNDRMDPPPPRIEDILPHRGSMLLLAHVDTWDDETLRASAHVDPTAWYADPEGAMPAWFGIELMAQAIAAHVGLLSMREGNPARPGVLLGSRKYEAHAPAFAPAQPLSIAVQEVLRSTEGHGAYACTIAAGGRDLAQAVIKVYQPTDFQAFIEGSFAS”: the protein production entry is “failed”.
